B1: Guanyl-specific ribonuclease T1, P00651 (parent)
chain: MMYSKLLTLTTLLLPTALALPSLVERACDYTCGSNCYSSSDVSTAQAAGYQLHEDGETVGSNSYPHKYNNYEGFDFSVSSPYYEWPILSSGDVYSGGSPGADRVVFNENNQLAGVITHTGASGNNFVECT

Variants of: B1
Settings: Aspergillus oryzae (strain ATCC 42149 / RIB 40); pH 7; 5 °C; Urea; DSC; MOPS 30 mM; reversible: yes; structure 1RN1; whole UniProt chain shown

With D102N as the variant, how does the “ddG of mutation (higher = less stable)” value read?
Its value is 2.77 kcal/mol.

What about the denaturant m value of the same variant?
Its denaturant m value is 1.53 kcal/mol/M.

And the “denaturant midpoint (higher = more stable)” value?
Its value is 3.63 M.

And the unfolding free energy?
The unfolding free energy was 5.55 kcal/mol.

Same assay, conditions: Aspergillus oryzae (strain ATCC 42149 / RIB 40); pH 7; 10 °C; Urea; DSC; MOPS 30 mM; reversible: yes; structure 1RN1; whole UniProt chain shown

Which results are given for D102N?
ddG of mutation (higher = less stable): 2.87 kcal/mol; denaturant m value: 1.52 kcal/mol/M; denaturant midpoint (higher = more stable): 3.3 M; unfolding free energy: 5 kcal/mol

Same assay, conditions: Aspergillus oryzae (strain ATCC 42149 / RIB 40); pH 7; 15 °C; Urea; DSC; MOPS 30 mM; reversible: yes; structure 1RN1; whole UniProt chain shown

What does the source list for D102N?
ddG of mutation (higher = less stable): 3.09 kcal/mol; denaturant m value: 1.41 kcal/mol/M; denaturant midpoint (higher = more stable): 3.01 M; unfolding free energy: 4.25 kcal/mol

Which results are given for D102A?
ddG of mutation (higher = less stable): 3.7 kcal/mol; denaturant m value: 1.42 kcal/mol/M; denaturant midpoint (higher = more stable): 2.57 M

Same assay, conditions: Aspergillus oryzae (strain ATCC 42149 / RIB 40); pH 7; 20 °C; Urea; DSC; MOPS 30 mM; reversible: yes; structure 1RN1; whole UniProt chain shown

Which “ddG of mutation (higher = less stable)” value does the source give for D102N here?
The value was 3.19 kcal/mol.

And the denaturant m value?
The denaturant m value was 1.48 kcal/mol/M.

What about the “denaturant midpoint (higher = more stable)” value of the same variant?
The value was 2.39 M.

What about the unfolding free energy of the same variant?
The unfolding free energy was 3.53 kcal/mol.

Same assay, conditions: Aspergillus oryzae (strain ATCC 42149 / RIB 40); pH 7; 25 °C; Urea; DSC; MOPS 30 mM; reversible: yes; structure 1RN1; whole UniProt chain shown

What does the source list for D102N?
ddG of mutation (higher = less stable): 3.51 kcal/mol; denaturant m value: 1.44 kcal/mol/M; denaturant midpoint (higher = more stable): 1.8 M; unfolding free energy: 2.58 kcal/mol

Same assay, conditions: Aspergillus oryzae (strain ATCC 42149 / RIB 40); pH 7; Thermal; DSC; MOPS 30 mM; reversible: yes; structure 1RN1; whole UniProt chain shown

Which results are given for D102N?
Tm: 37 °C; change of melting temperature, mutant - wild type (higher = more stable): -13.8 °C; unfolding enthalpy (calorimetric): 76 kcal/mol

Which Tm does the source give for D102A here?
The Tm was 35.6 °C.

And the “change of melting temperature, mutant - wild type (higher = more stable)” value?
The value was -15.2 °C.

What about the “unfolding enthalpy (calorimetric)” value of the same variant?
The value was 71.1 kcal/mol.

For D102S, which Tm is on record?
Its Tm is 37.2 °C.

And the “change of melting temperature, mutant - wild type (higher = more stable)” value?
Its value is -13.6 °C.

And the “unfolding enthalpy (calorimetric)” value?
The value was 77.6 kcal/mol.

Same assay, conditions: Aspergillus oryzae (strain ATCC 42149 / RIB 40); pH 7; 15 °C; Thermal; DSC; MOPS 30 mM; reversible: yes; structure 1RN1; whole UniProt chain shown

What does the source list for D102A?
ddG of mutation (higher = less stable): 3.8 kcal/mol; heat capacity change of unfolding: 1.39 kcal/mol/K

What does the source list for D102S?
ddG of mutation (higher = less stable): 3.1 kcal/mol; heat capacity change of unfolding: 1.39 kcal/mol/K
